Test results taken from patent US20260258115A1 (MAPP BIOPHARMACEUTICAL, published 2026).

B1: ADI-14607 (antibody, V domains shown)
VH: EVQLLESGGGVVQSGRSLRLSCAASGFTFNNYAMHWVRQAPGKGLEWVAVISFDGGNKFYGDSVQGRFTISRDNSKNTLYLQTNSLRPEDTAVYYCARDRWEIQIGLDIWGQGTTVTVSS
VL: SYVLTQPPSVSVSPGQTARITCSGDALARQNAYWYQQKPGQAPVLVMYRDTGRPSGIPERFSGSSSGTTVTLTISEVQAEDEADYYCQSADSSGAYVFGTGTKVTVL
B2: ADI-20960 (antibody, V domains shown)
VH: QVQLQQWGAGVLKPSETLSLTCAVNGRSLSGHYWSWIRQTPGKGLEWIGEINNSGGTHYSPSLKSRVIISGDTAKNQLSLKLSSVTAADTAVYYCAKGSAEWYFDLWGRGTLVTVSS
VL: DIRVTQSPSTLSASVGDRVTITCRASQSVSTWLAWYQQKPGKPPSLLIFKASTLESGVPSRFSGSGSGTEFTLTISSLQPDDFATYYCQQYNTYSPWTFGPGTKVEIK
B3: ADI-20963 (antibody, V domains shown)
VH: EVQLVESGGGLAKPGGSLRLSCAASGFTFSHYNMNWVRQAPGKGLEWVSSISSTGFHIYYADSVKGRFVISRDNAENSLHLQMNSLRADDTGLYYCVRAEYYYGSGSAGHYFDSWGQGTLVTVSS
VL: SYVLTQPPSVSVAPGHTAKITCGGSIIGTKSVHWYQQKPGQAPVLVVYDDSDRPSGIPERLSGSRSGNTATLTITRVEAGDEADYYCQVWDSSSEHAGVFGGGTKLTVL
B4: ADI-20967 (antibody, V domains shown)
VH: EVQLLESGGGVVQPGRSVRLSCAASGFSFSSYALHWVRQAPGKGLEWVGVIWYEESNKYYADPVKGRFTISRDNSKNTLYLQMNSLRDEDTAVYYCARKGVATAGLDYWGQGTLVTVSS
VL: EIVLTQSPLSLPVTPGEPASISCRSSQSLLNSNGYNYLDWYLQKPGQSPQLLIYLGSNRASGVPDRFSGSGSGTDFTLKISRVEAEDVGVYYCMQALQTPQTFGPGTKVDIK
notes: also called Ab 220
B5: ADI-20968 (antibody, V domains shown)
VH: QVQLQQWGAGLLKPSETLSLTCAMYGGSFSDDYWSWIRQPPGKGLEWIGEVNHGGSTNYNTSLKSRVTISADTSKKQFSLKLRSVTAADTAVYFCARGWRYCNATTCYSKAFDIWGQGTMVTVSS
VL: DIQMTQSPSSLSASVGDRVTITCQASQDIDIYLIWYQQKPGRAPKLLIYDASNLKTGVPSRFSGSGSGTEFTFTINNLQPEDFATYYCQQFHDLPLTFGGGTKLEIK
B6: ADI-20972 (antibody, V domains shown)
VH: QVQLQQWGAGLLRPSETLSLTCAVSGGSFSGHYWSWIRQPPGKGLEWIGGINHSGNTNYSPSLRSRVTMSVDTSRNQFSLMLRSVTAADTAVYFCARNVPNLYGDYPRWFDPWGQGTLVTVSS
VL: QSVLTQPASVSGSPGQSITISCTGTSSDVGGFNYVSWYQHHPGKAPKLMIYDVNNRPSGASNRFSGSKSGNTASLTISGLQAEDEADYYCSSYRSSDTLYVFGTGTKVTVL
B7: ADI-20975 (antibody, V domains shown)
VH: QVQLVESGTHVKKPGASVKVSCEASDDTFNNKGIVWVRQAPGQGLEWMGWIRPNNGNTKYAQKFQGRVTMTTDASTNTAYMELRSLRSGDTAVYYCAREQFKWNDFYFDYWGQGILVTVSS
VL: SYELMQPPSVSVAPGQTATITCGGSNIGSETVHWYQQKPGQAPVLVVHDDTDRPSGIPERFSGSNSGNTATLTISGVEAGDEADFYCQVRDSRTDDVVFGGGTKLTVL
B8: ADI-20976 (antibody, V domains shown)
VH: QVQLVESGGDLVQKGGSLRLSCAASGFTFDNYAMTWIRQAPGQGLEWVSTVSGFVLGTGYTTYYADSVKGRFTISRDSSKNTVYLQLNSLRAEDTAVYYCAKCAATRNECLWDYLQQWGQGTTVTVSS
VL: EIVMTQSPSSLSASVGDRVTITCRASQSVSIYLNWYQQKGGKAPKLLIYGASALQRGVPSRFSGSGSGTDFTLTITSLQPEDFATYFCHQSYSAPQTFGQGTKVDIK
B9: ADI-20981 (antibody, V domains shown)
VH: QVQLQESGPRLVKPSETLSLTCTVSGDSISSRNYFWAWIRQPPGKGLEWIGTIYYSGNTYSNPSLKSRVTISVDTSKKQFSLNLSSVTAADTAVYYCARGAYGGDAFDIWGQGTVVTVSS
VL: DIRVTQSPSSVSASVGDRVTITCRASQGIGTWLAWYQQKPGKAPHLLIYAASRLQSGVPSRFSGSGSGTDFTLSISSLHPEDFATYYCQQAYAFPRTFGQGTKVEIK
B10: ADI-20989 (antibody, V domains shown)
VH: EVQLLESGPGLVKPSGTLSLTCAVSGGSIINSNWWSWVRQSPGKGLEWIGDIYHSGSTTYNPSLKSRVTISVDRSKNQYSLRLTSVTAADTAVYYCAKIGPDNRSGPDYYYFMDVWGKGTTVTVSS
VL: EIVLTQSPSSLPASVGDRVTISCRASQSISNYVYWYQQKPGKAPKLLIYAASSLQSGVPSRFSGSGSGTDFTLSISSLQFEDFATYFCQQSYSTPPTFGQGTKLEIK
B11: ADI-20990 (antibody, V domains shown)
VH: EVQLVESGGGVVQPGRSLRLSCSASGFPFHSYAMHWVRQAPGKGLEWVAGIWYEGSSESYADSVKGRLTISRDNSRNTLYLQMNSLRVEDTAVYYCARRGSFSGFDSWGQGSLVTVSS
VL: DIVMTQSPLSLPVTPGEPASISCRSSQSLLHSNGYNYLDWYLQKPGQSPQLLISLGSNRASGVPDRFSGSVAGTDFTLKISRVEAEDVGVYYCMQSSQTPYTFGQGTKVDIK
B12: ADI-20993 (antibody, V domains shown)
VH: EVQLVESGGGVVQPGRSLRLTCAASGFPFSSYAMHWVRQAPGKGLEWVAVTWYDGPNRDYADSVKGRFTVSRDNSKNTLYLQMTSLRADDTAVYYCARRGSWGSFDYWGQGTLVTVSS
VL: DIVMTQSPLSLSATPGEPASISCRPSQSLLHSNGYNYLEWYLQKPGQSPQLLIYLGSNRASGVPDRFSGGGSGTDFTLRISRVEADDVGVYYCMQASQTPYTFGQGTKVEIK
B13: ADI-20996 (antibody, V domains shown)
VH: QVQLVESGPALVKPTQTLTLTCTFSGFSLTTRGMCVSWIRQPPGKALEWLARIDWDDDKYYSTSLKTRLTISKDTSKNQVVLTMTNMDPVDTATYYCARASTLTTAGYYLHYKDVWGNGTTVTVSS
VL: DIRMTQSPSSLSASVGDRVTITCRASQSIGTYLNWFQQKPGKAPNLLIYAASILHSGVPSRFSGSGSGTDFTLTIRTLQPEDFATYYCQQSYPTVTFGQGTKVEIK
B14: ADI-21000 (antibody, V domains shown)
VH: EVQLVESGPVLVKPRGTLTLTCTVSGFSLSDARMGVSWIRQPPGKALEWLAHIFWDDEKSYSTSLKNRLTISKDTSRGQVVLRMTNMDPVDTGTYFCARVNTYHSGGYYLYYFDVWGQGTLVTVSS
VL: EIVLTQSPSSLSASVGDRVTITCRASQIIASYLNWYQQKPGQAPKLLIYAASSLQSGVPSRFSGSGSGTDFTLTISSLQPEDFATYYCQQSYSTRMYTFGQGTKVEIK
B15: ADI-21001 (antibody, V domains shown)
VH: EVQLVESGPGLVKPSETLSLTCTVSGGSISDIDYYWGWIRQPPGKGLEWIGSIYYSGSTYYNPSLESRVTISVDTSKNQFSLKLRSVSAADTALYHCARHGPPWVVTAIRGHAFDVWGQGTTVTVSS
VL: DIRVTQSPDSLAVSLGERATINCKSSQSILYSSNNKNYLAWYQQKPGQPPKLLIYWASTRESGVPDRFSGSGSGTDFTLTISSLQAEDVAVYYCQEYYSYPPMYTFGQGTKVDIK
B16: ADI-21002 (antibody, V domains shown)
VH: QVQLVESGPGLVKPSGTLSLTCAVSGDSINSGNWWNWVRQAPGKGLEWIGEIYHRGTSNYNPSLKSRVTISVDQSKNQFSLKVTSLTAADTAIYYCARARGYSSGPSYYYYLDVWGKGTLVTVSS
VL: EIVMTQSPSSLSASVGDRVTISCRASQSISTYLNWYQQKPGKAPKVIIYGASNLQSGVPSRFSGSGSGTDFTLTISSLQPEDFATYYCQKSFNPCVFGQGTKVDIK
B17: ADI-21003 (antibody, V domains shown)
VH: QVQLQQWGAGLLKPSETLSLSCAVSGGSFSGYYWTWIRQPPGKGLEWIGEINHSGSTNYNPSLKSRVTISVDTSKNQFSLKLSSVTAADTAVYYCARARYFDYLAHWSFDLWGRGTLVTVSS
VL: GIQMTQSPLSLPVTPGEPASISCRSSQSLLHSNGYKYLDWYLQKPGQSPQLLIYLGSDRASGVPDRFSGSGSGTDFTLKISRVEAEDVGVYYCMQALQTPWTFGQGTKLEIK
B18: ADI-21004 (antibody, V domains shown)
VH: QVQLQESGGGVVQPGRSLTLSCAASGFTFSSYGMHWVRQAPGKGLDWVAEIWYDGSNKYYVDSVKGRFTISRDNSKNTLYLQMKSLRAEDTAIYYCARDGGYESPFFDKWGQGTLVTVSS
VL: EIVMTQSPDSLGVSLGERATINCKSSQSLYTSNHENSLAWYQQKPGQPPRLLIYWASTRELGVPDRFSGSGSGTDFTLTISSLQAEDVAVYYCQQYHTTPLTFGPGTKVEIK
B19: ADI-21007 (antibody, V domains shown)
VH: QVQLVQSGADVKKPGASVKVSCKSSGYTFSNHSMHWVRQAPGQGLEWMGRIHPSSGTTTYAQKFQGRVTMTRDTSTSTVYMEVSSLRSEDTAVYYCARSPFFDFDFWGQGTMVTVSS
VL: SYVLTQPHSVSESPGKTVTISCTRSSGSIASNYVQWYQQRPGSAPTSVIYEDNQRPSGVPDRFSGSIDSTSNSASLTISGLKTEDEADYYCQSYYSSGWVFGGGTKLTVL

These binders were tested against RSV prefusion F (preF), subtype A (respiratory syncytial virus, subtype A, UniProt P03420 26-513) (assay: BLI, IgG).

Binder	Kd
B1	1700 pM
B2	220 pM
B3	791 pM
B4	2230 pM
B5	135 pM
B6	888 pM
B7	92 pM
B8	1860 pM
B9	2340 pM
B10	4800 pM
B11	1580 pM
B12	1380 pM
B13	1030 pM
B14	1490 pM
B15	2120 pM
B16	2360 pM
B17	4750 pM
B18	4590 pM
B19	1480 pM

The binders below were run against T1, RSV postfusion F (postF), subtype A (respiratory syncytial virus, subtype A, UniProt P03420 26-513) (assay: BLI, IgG).
T1 construct: also called F ΔFP; Postfusion subtype A

Binder	Kd
B1	381 pM
B2	163 pM
B3	90.9 pM
B4	257 pM
B5	157 pM
B6	401 pM
B7	146 pM
B8	263 pM
B9	233 pM
B10	428 pM
B11	178 pM
B12	168 pM
B13	204 pM
B14	295 pM
B15	277 pM
B16	214 pM
B17	440 pM
B18	540 pM
B19	171 pM

The binders below were run against RSV prefusion F (preF), subtype B (respiratory syncytial virus, subtype B) (assay: BLI, IgG).

Binder	Kd
B1	640 pM
B2	230 pM
B3	3140 pM
B4	4080 pM
B5	127 pM
B6	6060 pM
B7	95.8 pM
B8	955 pM
B9	2140 pM
B10	6290 pM
B11	904 pM
B12	742 pM
B13	1060 pM
B14	1300 pM
B15	1850 pM
B16	8600 pM
B17	987 pM
B18	10200 pM
B19	1720 pM

Each binder was assayed against T2, RSV postfusion F (postF), subtype B (respiratory syncytial virus, subtype B) (assay: BLI, IgG).
T2 construct: also called F ΔFP; Postfusion subtype B

Binder	Kd
B1	227 pM
B2	163 pM
B3	614 pM
B4	3450 pM
B5	150 pM
B6	3480 pM
B7	129 pM
B8	304 pM
B9	295 pM
B10	809 pM
B11	312 pM
B12	273 pM
B13	1120 pM
B14	602 pM
B15	302 pM
B16	6390 pM
B17	421 pM
B18	798 pM
B19	171 pM
